Patent publication US20170051058A1 (UNIVERSITAET DUISBURG ESSEN, published 2017)

T1: CEACAM1 (human, UniProt P13688 35-526, limits assumed)
T1 construct: also called entire CEACAM1; CD66a
T1 sequence: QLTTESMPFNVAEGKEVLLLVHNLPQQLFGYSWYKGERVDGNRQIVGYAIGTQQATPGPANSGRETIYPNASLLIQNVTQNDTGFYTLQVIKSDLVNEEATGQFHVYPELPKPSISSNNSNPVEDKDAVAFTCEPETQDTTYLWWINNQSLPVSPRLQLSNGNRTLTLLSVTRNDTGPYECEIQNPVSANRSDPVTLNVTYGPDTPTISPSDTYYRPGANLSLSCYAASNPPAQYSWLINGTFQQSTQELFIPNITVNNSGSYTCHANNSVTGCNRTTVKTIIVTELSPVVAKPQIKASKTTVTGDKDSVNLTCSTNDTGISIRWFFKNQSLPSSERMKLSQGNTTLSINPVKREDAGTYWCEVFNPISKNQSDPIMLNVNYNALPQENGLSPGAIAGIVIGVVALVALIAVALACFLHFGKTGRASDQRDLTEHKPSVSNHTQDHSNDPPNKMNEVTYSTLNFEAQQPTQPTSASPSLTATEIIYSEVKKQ


Legend:
[1] = target: CEACAM1 on human CD8+ T cells from the blood of healthy donors (human) (UniProt P13688); assay: flow cytometry on human PBMCs, gated on CD8+ T cells, anti-mouse IgG-APC
[2] = target: CEACAM1 without N-domain (human) (UniProt P13688); assay: sandwich ELISA, CEACAM1dN from CHO transfectants captured by anti-CEA, detection with anti-mouse Ig-HRP
CEACAM1 [3] = target: T1, CEACAM1; assay: method not stated
CEACAM1 [4] = target: T1, CEACAM1; assay: sandwich ELISA, CEACAM1 from CHO transfectants captured by anti-CEA, detection with anti-mouse Ig-HRP
Method: Sandwich ELISA was coated with 0.25 μg/100 microL/well of anti-CEA (Dako). ELISA was washed and remaining binding sites blocked. Subsequently, CEACAM1 or CEACAM1deltaN (therefore CEACAM1 without N-domain, CEACAM1dN) was added thereto. CEACAM1 and CEACAM1deltaN were obtained from CHO transfectants. The ELISA was then incubated with differing antibodies. After 4 hours of incubation, the ELISA was washed and incubated with anti-mouse Ig-HRP. After 1 hour, the substrate TMB was added and the absorption measured at 450 nm.

Row | mean fluorescence intensity [1] [MFI] | absorption at 450 nm (mean) (absorption at 450 nm) [2] | Kd (CEACAM1 [3]) [nM] | absorption at 450 nm (mean) (CEACAM1 [4]) [absorption at 450 nm] | Molecule
1 | 436 |  |  |  | isotype control (antibody)
2 |  | 0.066 | 23 | 1.09 | anti-human CEACAM1 antibody (clone 6G5J) (antibody, V domains shown, Mouse monoclonal antibody from a hybridoma; also called antibody 6G5J) VH: KPGETVKISCKTSGYIFRNYGMKWVKQAPGKGLKWMGWINTYTGEPTYADDFKGRFAFSLETSASTAYLQINNLKNEDMATYFCARRGMITTSNYALDNWGQGTSVTVSS VL: SSLSASLGDRVTISCRASQDISNYLNWYQQKPDGTIKLLIYYTSKLHSGVPSRFSGSGSGTDYSLTISNLDQEDIATYFCQQGNTLPWTFGGGTKLEIK
3 |  | 0.053 | 26 | 1.3 | anti-human CEACAM1 antibody (clone 18-20) (antibody, V domains shown, Mouse monoclonal antibody from a hybridoma; also called antibody 18-20) VH: KPGETVKISCKASGYTFTVYGMNWVKQAPGKDLKWMGWINTYTGEPTYADDFKGRFAFSLETSASTAYLQINNLKNEDMATYFCARKAFYRYDGGMDYWGQGTSVTVSS VL: SSLSASLGGKVTITCKASQDINKFLAWYQHKPGKGPRLLIHYTSTLQPGIPSRFSGSGSGRDYSFSISNLEPEDIATYYCLQYDNLYTFGGGTKLEIK
4 |  | 0.91 | 10 | 0.62 | anti-human CEACAM1 antibody (clone B3-17) (antibody, V domains shown, Mouse monoclonal antibody from a hybridoma; also called antibody B3-17; mAB, B3-17) VH: GPELVKPGTSVKMSCKASGYTFTTYVMHWVQQKPGQGLDWIGFFNPYNDGTKYNEKFKGKATLTSDKSSSTAYMELSSLTSEDSAVYYCARWAYDGSYAYWGQGTTLTVSS VL: SYLSVFLGGRVTITCKASDHINNWLAWYQQKPGNAPRLLISGATSLETGVPSRFSGSGSGKDYTLSIISLQTEDVATYYCQQYWRTPFTFGSGTKLEIK
